From publication PMC11640301, “Escherichia coli tRNA (Gm18) methyltransferase (TrmH) requires the correct localization of its methylation site (G18) in the D-loop for efficient methylation” (Journal of Biochemistry, 2023)
Numbering of substitutions follows the chain as printed. Names and notes keep the numbering of the source.

Tests used:
[1] = molecular target: E. coli TrmH (without a tag sequence) (Escherichia coli, UniProt P0AGJ2); test: radiometric filter assay, methyl transfer to tRNA transcript; type: biochemical; conditions: methyl donor; 200 μM SAM, tRNA^SerCGA transcript, pH 7.6, 37 °C; labelled compound
[2] = molecular target: T1, TrmH (tRNA Gm18 methyltransferase) (Escherichia coli HB101 (gene source), UniProt P0AGJ2 1-229); test: EMSA; 5 mM Mg-acetate, 400 mM KCl; no SAM listed; tRNA 4.25 uM, complex at enzyme below 10 uM; slightly weaker than T. thermophilus TrmH; 50 mM Tris-HCl pH 7.6, 5 mM Mg-acetate, 6 mM 2-mercaptoethanol, 400 mM KCl, 5% glycerol; room temperature 30 min; 4.25 uM tRNA, 0-17 uM TrmH; 6% native PAGE; conditions: protein: recombinant; tags: none (pET30a, untagged); chain copies: 2; label: none; tRNA cloverleaf, long variable region
T1 sequence: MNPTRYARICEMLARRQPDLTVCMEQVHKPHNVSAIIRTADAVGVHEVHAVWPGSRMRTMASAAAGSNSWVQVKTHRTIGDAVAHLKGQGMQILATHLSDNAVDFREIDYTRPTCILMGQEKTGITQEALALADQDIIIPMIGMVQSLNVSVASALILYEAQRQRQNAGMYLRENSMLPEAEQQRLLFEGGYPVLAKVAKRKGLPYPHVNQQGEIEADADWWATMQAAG

[3] = molecular target: T2, TrmH (tRNA Gm18 methyltransferase) (Thermus thermophilus, UniProt Q5SM16 1-194); test: EMSA; 5 mM Mg-acetate, 400 mM KCl; no SAM listed; tRNA 4.25 uM; 50 mM Tris-HCl pH 7.6, 5 mM Mg-acetate, 6 mM 2-mercaptoethanol, 400 mM KCl, 5% glycerol; room temperature 30 min; 4.25 uM tRNA, 0-17 uM TrmH; 6% native PAGE; conditions: protein: recombinant; chain copies: 2; label: none; tRNA cloverleaf, long variable region
T2 sequence: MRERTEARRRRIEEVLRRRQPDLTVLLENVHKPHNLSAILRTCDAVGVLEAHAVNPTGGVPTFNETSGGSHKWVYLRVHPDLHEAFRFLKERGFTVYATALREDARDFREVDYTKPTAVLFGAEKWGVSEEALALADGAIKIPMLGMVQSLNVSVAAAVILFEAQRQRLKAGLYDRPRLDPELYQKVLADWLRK

[4] = molecular target: the molecule itself; test: crystal structure; E107G TrmH co-crystallised with 2 mM SAM; hanging-drop vapor diffusion, 20°C, 100 mM HEPES-NaOH (pH 7.6), 5% MPD, 10% PEG 6000; space group C2, one E107G-SAM molecule per asymmetric unit; dimer

Q: With `C[S+](CC[C@H](N)C(=O)O)C[C@H]1O[C@@H](n2cnc3c(N)ncnc32)[C@H](O)[C@@H]1O` (stereo partly drawn) [S-adenosyl-L-methionine] as the molecule, how does the “radiometric filter assay, methyl transfer to tRNA transcript” value [1] read?
A: incorporation of the methyl group from [methyl-^3H]-SAM into E. coli tRNA^SerCGA transcript was monitored

B1: tRNASerCGA transcript (structured_RNA)
RNA: GGAGAGAUGCCGGAGCGGCUGAACGGACCGGUCUCGAAAACCGGAGUAGGGGCAACUCUACCGGGGGUUCAAAUCCCCCUCUCUCCGCCA
modifications: none (unmodified transcript)
Q: Does B1 bind [2]?
A: binds

Q: Does B1 bind [3]?
A: binds

B2: E. coli TrmH (E107G) mutant, tRNA (Gm18) methyltransferase, with 6x His tag (enzyme, UniProt P0AGJ2 1-229, looked up)
chain: T1 sequence with E107G
notes: TrmH, tRNA (Gm18) 2'-O-methyltransferase of Escherichia coli; trmH gene amplified from E. coli HB101 genomic DNA with primers from the start codon to the stop codon; Glu107 replaced with Gly; No removal of the His tag is described; One molecule per asymmetric unit, so the dimer is formed by crystal symmetry; also called E107G mutant TrmH; E107G-SAM; source: E. coli BL21 (DE3) Rosetta 2, …
Q: With B2 as the molecule, how does the “stoichiometry N” value [4] read?
A: 2
